Measurements from publication PMC10958042.

B1: ATGL (PNPLA2, patatin-like phospholipase domain-containing protein 2), human, full length / CGI-58 (ABHD5, 1-acylglycerol-3-phosphate O-acyltransferase ABHD5), human (parent)
chain 1: MFPREKTWNISFAGCGFLGVYYVGVASCLREHAPFLVANATHIYGASAGALTATALVTGVCLGEAGAKFIEVSKEARKRFLGPLHPSFNLVKIIRSFLLKVLPADSHEHASGRLGISLTRVSDGENVIISHFNSKDELIQANVCSGFIPVYCGLIPPSLQGVRYVDGGISDNLPLYELKNTITVSPFSGESDICPQDSSTNIHELRVTNTSIQFNLRNLYRLSKALFPPEPLVLREMCKQGYRDGLRFLQRNGLLNRPNPLLALPPARPHGPEDKDQAVESAQAEDYSQLPGEDHILEHLPARLNEALLEACVEPTDLLTTLSNMLPVRLATAMMVPYTLPLESALSFTIRLLEWLPDVPEDIRWMKEQTGSICQYLVMRAKRKLGRHLPSRLPEQVELRRVQSLPSVPLSCAAYREALPGWMRNNLSLGDALAKWEECQRQLLLGLFCTNVAFPPEALRMRAPADPAPAPADPASPQHQLAGPAPLLSTPAPEARPVIGALGL
chain 2: MAAEEEEVDSADTGERSGWLTGWLPTWCPTSISHLKEAEEKMLKCVPCTYKKEPVRISNGNKIWTLKFSHNISNKTPLVLLHGFGGGLGLWALNFGDLCTNRPVYAFDLLGFGRSSRPRFDSDAEEVENQFVESIEEWRCALGLDKMILLGHNLGGFLAAAYSLKYPSRVNHLILVEPWGFPERPDLADQDRPIPVWIRALGAALTPFNPLAGLRIAGPFGLSLVQRLRPDFKRKYSSMFEDDTVTEYIYHCNVQTPSGETAFKNMTIPYGWAKRPMLQRIGKMHPDIPVSVIFGARSCIDGNSGTSIQSLRPHSYVKTIAILGAGHYVYADQPEEFNQKVKEICDTVD

Variants of: B1
Test: LUMIER: Protein A-ATGL variant and firefly luciferase-partner co-expressed in HEK293T, lysates immunoprecipitated on IgG-coated plates, co-precipitated partner measured as luciferase luminescence
Settings: with CGI-58 (ABHD5, 1-acylglycerol-3-phosphate O-acyltransferase ABHD5), transient co-transfection, IgG-coated LUMITRAC plates, 2 h at 4 °C, three PBS washes, Bright-Glo luciferase reagent, triplicates per assay, two …, scale: log2 fold change of co-immunoprecipitated luminescence relative to wild-type ATGL within each experiment

| Variant | screen value (parent: 0.32, not graded) | screen value (parent: 0.45, not graded) |
| --- | --- | --- |
| chain 1 MFPREKTWNISFAGCGFLGVYYVGVASCLREHAPFLVANATHIYGASAGALTATALVTGVCLGEALAKFIEVSKEARKRFLGPLHPSFNLVKIIRSFLLKVLPADSHEHASGRLGISLTRVSDGENVIISHFNSKDELIQANVCSGFIPVYCGLIPPSLQGVRYVDGGISDNLPLYELKNTITVSPFSGESDICPQDSSTNIHELRVTNTSIQFNLRNLYRLSKALFPPEPLVLREMCKQGYRDGLRFLQRNGLLNRPNPLLALPPARPHGPEDKDQAVESAQAEDYSQLPGEDHILEHLPARLNEALLEACVEPTDLLTTLSNMLPVRLATAMMVPYTLPLESALSFTIRLLEWLPDVPEDIRWMKEQTGSICQYLVMRAKRKLGRHLPSRLPEQVELRRVQSLPSVPLSCAAYREALPGWMRNNLSLGDALAKWEECQRQLLLGLFCTNVAFPPEALRMRAPADPAPAPADPASPQHQLAGPAPLLSTPAPEARPVIGALGL [chain 1 G66L] | 0.0179 | -0.54 |
| chain 1 MFPREKTWNISFAGCGFLGVYYVGVASCLREHAPFLVANATHIYGASAGALTATALVTGVCLGEAGAKFIEVSKEARKRFLGPLHPSFNLVKIIRSFLLKVLPADSHEHASGRLGISLTRVSDGENVIISHFNSKDELIQANVCSGFIPVYCALIPPSLQGVRYVDGGISDNLPLYELKNTITVSPFSGESDICPQDSSTNIHELRVTNTSIQFNLRNLYRLSKALFPPEPLVLREMCKQGYRDGLRFLQRNGLLNRPNPLLALPPARPHGPEDKDQAVESAQAEDYSQLPGEDHILEHLPARLNEALLEACVEPTDLLTTLSNMLPVRLATAMMVPYTLPLESALSFTIRLLEWLPDVPEDIRWMKEQTGSICQYLVMRAKRKLGRHLPSRLPEQVELRRVQSLPSVPLSCAAYREALPGWMRNNLSLGDALAKWEECQRQLLLGLFCTNVAFPPEALRMRAPADPAPAPADPASPQHQLAGPAPLLSTPAPEARPVIGALGL [chain 1 G153A] | -0.595 | -0.455 |
| chain 1 MFPREKTWNISFAGCGFLGVYYVGVASCLREHAPFLVANATHIYGASAGALTATALVTGVCLGEAGAKFIEVSKEARKRFLGPLHPSFNLVKIIRSFLLKVLPADSHEHASGRLGISLTRVSDGENVIISHFNSKDELIQANVCSGFIPVYCKLIPPSLQGVRYVDGGISDNLPLYELKNTITVSPFSGESDICPQDSSTNIHELRVTNTSIQFNLRNLYRLSKALFPPEPLVLREMCKQGYRDGLRFLQRNGLLNRPNPLLALPPARPHGPEDKDQAVESAQAEDYSQLPGEDHILEHLPARLNEALLEACVEPTDLLTTLSNMLPVRLATAMMVPYTLPLESALSFTIRLLEWLPDVPEDIRWMKEQTGSICQYLVMRAKRKLGRHLPSRLPEQVELRRVQSLPSVPLSCAAYREALPGWMRNNLSLGDALAKWEECQRQLLLGLFCTNVAFPPEALRMRAPADPAPAPADPASPQHQLAGPAPLLSTPAPEARPVIGALGL [chain 1 G153K] | -0.536 | -0.602 |
